From publication PMC2171675 come the findings set out here.

The test has as its target neural cell adhesion molecule (NCAM) (mouse (endogenous in brain)) (UniProt P13595). In words: co-IP.
Sequence of UniProt P13595 (P13595 20-1115): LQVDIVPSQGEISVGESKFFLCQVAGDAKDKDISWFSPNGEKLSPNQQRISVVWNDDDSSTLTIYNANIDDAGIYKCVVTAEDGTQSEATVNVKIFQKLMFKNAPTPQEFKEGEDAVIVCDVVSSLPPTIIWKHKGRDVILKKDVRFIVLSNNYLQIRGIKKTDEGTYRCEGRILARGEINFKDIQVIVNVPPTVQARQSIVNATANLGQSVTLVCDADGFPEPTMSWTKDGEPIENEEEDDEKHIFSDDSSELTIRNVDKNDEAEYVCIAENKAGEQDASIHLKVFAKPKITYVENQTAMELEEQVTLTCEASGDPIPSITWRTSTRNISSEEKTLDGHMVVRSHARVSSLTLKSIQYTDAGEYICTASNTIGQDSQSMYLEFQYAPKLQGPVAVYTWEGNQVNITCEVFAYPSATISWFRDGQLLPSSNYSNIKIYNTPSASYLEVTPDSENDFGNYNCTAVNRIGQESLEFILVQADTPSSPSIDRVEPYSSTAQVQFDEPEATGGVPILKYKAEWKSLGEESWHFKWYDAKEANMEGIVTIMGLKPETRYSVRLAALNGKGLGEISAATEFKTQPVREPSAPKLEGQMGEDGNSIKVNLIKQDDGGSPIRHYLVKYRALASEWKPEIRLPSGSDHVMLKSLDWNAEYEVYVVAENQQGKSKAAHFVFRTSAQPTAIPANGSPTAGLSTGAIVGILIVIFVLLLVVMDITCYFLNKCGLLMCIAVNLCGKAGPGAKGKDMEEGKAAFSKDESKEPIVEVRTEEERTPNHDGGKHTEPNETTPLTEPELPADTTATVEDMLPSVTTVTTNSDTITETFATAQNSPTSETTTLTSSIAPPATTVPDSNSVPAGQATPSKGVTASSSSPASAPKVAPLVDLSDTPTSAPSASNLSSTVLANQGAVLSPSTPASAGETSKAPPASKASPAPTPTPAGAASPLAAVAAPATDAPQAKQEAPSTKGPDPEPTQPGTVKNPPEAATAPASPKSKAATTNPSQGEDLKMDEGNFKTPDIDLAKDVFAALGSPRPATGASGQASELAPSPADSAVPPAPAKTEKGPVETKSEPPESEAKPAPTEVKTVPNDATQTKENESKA

The substance “receptor-like protein tyrosine phosphatase RPTPα (natural protein)” yielded a reduction of the co-immunoprecipitated complex with 2 mM EDTA against with Ca2+ of 60%.
